Source: publication PMC11931385, “Structural and functional analysis of cancer-associated missense variants in the retinoblastoma protein pocket domain” (The Journal of Biological Chemistry, 2025)
Where a chain is given by its changes, count along the chain named. Names may count otherwise. No end group written: not given here. TMR = tetramethyl rhodamine dye

T1: Rb^P R741S (human, UniProt P06400 380-788, R741S)
T1 construct: also called variant 70
T1 sequence (looked up): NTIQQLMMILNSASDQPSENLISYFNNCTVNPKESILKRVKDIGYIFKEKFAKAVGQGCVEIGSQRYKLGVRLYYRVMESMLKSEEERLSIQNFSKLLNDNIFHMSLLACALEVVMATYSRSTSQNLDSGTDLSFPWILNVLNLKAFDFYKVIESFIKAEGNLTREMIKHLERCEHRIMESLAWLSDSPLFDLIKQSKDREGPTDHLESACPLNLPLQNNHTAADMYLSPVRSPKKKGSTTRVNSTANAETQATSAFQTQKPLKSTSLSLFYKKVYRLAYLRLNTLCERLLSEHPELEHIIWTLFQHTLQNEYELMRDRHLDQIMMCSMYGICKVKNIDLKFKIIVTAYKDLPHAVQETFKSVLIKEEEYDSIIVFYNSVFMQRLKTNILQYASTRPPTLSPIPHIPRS

T2: Rb^P D697E (human, UniProt P06400 380-788, D697E)
T2 construct: also called variant 62
T2 sequence (looked up): T1 sequence (looked up) with D318E, S362R

T3: Rb^P E492Q (human, UniProt P06400 380-788, E492Q)
T3 construct: also called variant 18
T3 sequence (looked up): T1 sequence (looked up) with E113Q, S362R

T4: Rb^P T638S (human, UniProt P06400 380-788, T638S)
T4 construct: also called variant 45
T4 sequence (looked up): T1 sequence (looked up) with T259S, S362R

T5: Rb^P S474R (human, UniProt P06400 380-788, S474R)
T5 construct: also called variant 13
T5 sequence (looked up): T1 sequence (looked up) with S95R, S362R

B1: TMR-E2F1^TD, peptide of the E2F1 transactivation domain (peptide)
peptide: {TMR}-GEGIRDLFDCDFGDLTPLD
notes: also called E2F^TD; source: synthetic peptide, bought: GenScript
B2: TMR-E7^LxCxE, LxCxE peptide of the E7 oncoprotein from HPV (peptide)
peptide: DLYCYEQLN
modifications: also: TMR label, position not given here
notes: source: synthetic peptide, bought: GenScript

Tests used:
Assay in all cases: fluorescence polarisation; 37 °C, after the 25 °C reading ramped over 7 min to 37 °C and 2 min incubation; unlabeled Rb^P against 1.5 nM TMR-E2F1^TD or 7.5 nM TMR-E7^LxCxE; 25 mM Tris pH 8.0, 200 mM NaCl, 1 mM DTT, 0.1% Tween-20; apparent Kd
Settings in all cases: both partners purified
[1] = biological target: T1, Rb^P R741S
[2] = biological target: T2, Rb^P D697E
[3] = biological target: T3, Rb^P E492Q
[4] = biological target: T4, Rb^P T638S
[5] = biological target: T5, Rb^P S474R

Row | Binder | Kd [1] | Kd [2] | Kd [3] | Kd [4] | Kd [5]
1 | B1 | 84 nM | 129 nM | 73 nM | 38 nM | 580 nM
2 | B2 | 46 nM | 46 nM | 52 nM | 14 nM | 15 nM
